The results in this text go back to publication PMC12282144 (Journal of Virology, 2025).

In assay [1] the target is T1, N-terminal GST-tagged soluble ectodomain of NRP2 (aa 17-865) (human, UniProt O60462 17-865).
T1 construct: not shown: GST, N-terminal, kept
T1 sequence: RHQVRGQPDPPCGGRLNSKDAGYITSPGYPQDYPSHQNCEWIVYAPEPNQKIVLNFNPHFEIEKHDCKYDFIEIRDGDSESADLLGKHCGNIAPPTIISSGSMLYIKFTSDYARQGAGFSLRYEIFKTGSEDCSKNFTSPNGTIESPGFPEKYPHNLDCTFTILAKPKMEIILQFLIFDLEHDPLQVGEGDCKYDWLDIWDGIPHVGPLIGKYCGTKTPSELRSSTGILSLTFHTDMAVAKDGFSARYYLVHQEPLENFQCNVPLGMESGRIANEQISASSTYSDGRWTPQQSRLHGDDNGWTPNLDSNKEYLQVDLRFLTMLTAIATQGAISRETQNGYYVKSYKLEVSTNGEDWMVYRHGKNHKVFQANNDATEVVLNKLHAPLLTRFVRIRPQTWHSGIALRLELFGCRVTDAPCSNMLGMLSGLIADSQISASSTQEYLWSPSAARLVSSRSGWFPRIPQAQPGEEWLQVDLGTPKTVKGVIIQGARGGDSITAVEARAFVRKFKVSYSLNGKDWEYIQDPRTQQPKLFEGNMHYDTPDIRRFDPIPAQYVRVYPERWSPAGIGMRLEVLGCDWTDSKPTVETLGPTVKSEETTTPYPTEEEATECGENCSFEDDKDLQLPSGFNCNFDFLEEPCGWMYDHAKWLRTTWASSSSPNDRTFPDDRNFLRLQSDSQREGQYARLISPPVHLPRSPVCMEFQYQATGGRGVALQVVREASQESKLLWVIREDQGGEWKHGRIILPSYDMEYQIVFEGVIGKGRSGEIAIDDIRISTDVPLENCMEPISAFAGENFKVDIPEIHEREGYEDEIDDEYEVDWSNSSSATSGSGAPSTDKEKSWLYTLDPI
As to the kind of experiment: pull-down. The conditions noted are these: both partners purified.

Assay [2] addresses T2, recombinant Fc-tagged NRP2 ectodomain (human, UniProt O60462 21-864).
T2 construct: not shown: Fc, C-terminal, kept
T2 sequence: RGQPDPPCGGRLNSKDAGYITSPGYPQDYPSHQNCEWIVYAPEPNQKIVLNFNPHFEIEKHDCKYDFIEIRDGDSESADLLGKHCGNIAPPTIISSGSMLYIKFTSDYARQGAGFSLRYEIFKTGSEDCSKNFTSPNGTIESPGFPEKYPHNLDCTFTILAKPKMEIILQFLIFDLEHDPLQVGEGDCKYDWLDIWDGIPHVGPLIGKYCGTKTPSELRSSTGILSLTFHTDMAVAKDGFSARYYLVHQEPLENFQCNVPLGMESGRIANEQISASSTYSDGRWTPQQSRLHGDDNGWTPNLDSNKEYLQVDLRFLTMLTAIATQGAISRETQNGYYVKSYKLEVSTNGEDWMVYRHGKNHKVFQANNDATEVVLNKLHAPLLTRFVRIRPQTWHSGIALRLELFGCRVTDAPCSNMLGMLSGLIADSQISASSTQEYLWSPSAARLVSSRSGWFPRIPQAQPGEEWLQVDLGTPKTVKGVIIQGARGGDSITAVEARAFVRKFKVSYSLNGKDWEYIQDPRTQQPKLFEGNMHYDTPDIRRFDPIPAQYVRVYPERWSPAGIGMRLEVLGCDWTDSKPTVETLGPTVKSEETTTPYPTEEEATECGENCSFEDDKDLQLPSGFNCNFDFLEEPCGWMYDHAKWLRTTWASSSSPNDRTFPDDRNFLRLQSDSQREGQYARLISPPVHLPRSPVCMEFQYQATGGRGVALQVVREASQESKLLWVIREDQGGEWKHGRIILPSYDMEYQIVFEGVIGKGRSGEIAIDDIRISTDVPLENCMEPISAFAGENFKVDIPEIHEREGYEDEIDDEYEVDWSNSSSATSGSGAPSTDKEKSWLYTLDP
As to the kind of experiment: […] (10, 20 or 50 µL, […]) in 0.2 mL PBS for 2 h; […]. The settings on record: both partners purified.

B1: RABV G on purified ERA(G/Flag) particles (natural protein)
chain: KFPIYTILDKLGPWSPIDIHHLSCPNNLVVEDEGCTNLSGFSYMELKVGYILAIKMNGFTCTGVVTEAETYTNFVGYVTTTFKRKHFRPTPDACRAAYNWKMAGDPRYEESLHNPYPDYRWLRTVKTTKESLVIISPSVADLDPYDRSLHSRVFPSGKCSGVAVSSTYCSTNHDYTIWMPENPRLGMSCDIFTNSRGKRASKGSETCGFVDERGLYKSLKGACKLKLCGVLGLRLMDGTWVAMQTSNETKWCPPDQLVNLHDFRSDEIEHLVVEELVRKREECLDALESIMTTKSVSFRRLSHLRKLVPGFGKAYTIFNKTLMEADAHYKSVRTWNEILPSKGCLRVGGRCHPHVNGVFFNGIILGPDGNVLIPEMQSSLLQQHMELLESSVIPLVHPLADPSTVFKDGDEAEDFVEVHLPDVHNQVSGVDLGLPNWGKYVLLSAGALTALMLIIFLMTCCRRVNRSEPTQHNLRGTGREVSVTPQSGKIISSWESHKSGGETRL
For B1, the binding result in assay [1] and in assay [2] was “binds” each time.
